Measured values from article PMC3544922.
“And” between values parts separate entries of the source, which are not always exact repeats. Identical values can stand only once.

Biological target: recombinant HIV-1 integrase (HIV-1)
Assay: atomic force microscopy; 50 ng integrase incubated with 10 ng target DNA xkyk in binding buffer with MnCl2 at 30°C, dialysed against PBS 48 h at 4°C, digested with ScaI, adsorbed on mica with spermidine, tapping mode in air; size and volume of integrase bound on DNA (n = 123)

## recombinant HIV-1 integrase (enzyme)
  stoichiometry N: 2 and 4
